Assay results published in US20210196794A1 (SUNSHINE LAKE PHARMA, published 2021).
Where a chain is given by its changes, count along the chain named. Blank lines part the entries; values can stand above or below the binder they belong to.

Columns and labels:
[1] = biological target: βKlotho protein (AVIVA SYSTEMS BIOLOGY); assay: ELISA on coated βKlotho, detection with anti-human IgG4 Fc-HRP, OD450
[2] = biological target: βKlotho protein (AVIVA SYSTEMS BIOLOGY); assay: BLI (Octet RED 96), biotinylated βKlotho on streptavidin probe
[3] = biological target: βKlotho protein (AVIVA SYSTEMS BIOLOGY); assay: BLI (Octet RED 96), biotinylated βKlotho on streptavidin probe, fusion protein at 40 nM

Sequence of βKlotho protein (AVIVA SYSTEMS BIOLOGY) (chain, as listed by the source): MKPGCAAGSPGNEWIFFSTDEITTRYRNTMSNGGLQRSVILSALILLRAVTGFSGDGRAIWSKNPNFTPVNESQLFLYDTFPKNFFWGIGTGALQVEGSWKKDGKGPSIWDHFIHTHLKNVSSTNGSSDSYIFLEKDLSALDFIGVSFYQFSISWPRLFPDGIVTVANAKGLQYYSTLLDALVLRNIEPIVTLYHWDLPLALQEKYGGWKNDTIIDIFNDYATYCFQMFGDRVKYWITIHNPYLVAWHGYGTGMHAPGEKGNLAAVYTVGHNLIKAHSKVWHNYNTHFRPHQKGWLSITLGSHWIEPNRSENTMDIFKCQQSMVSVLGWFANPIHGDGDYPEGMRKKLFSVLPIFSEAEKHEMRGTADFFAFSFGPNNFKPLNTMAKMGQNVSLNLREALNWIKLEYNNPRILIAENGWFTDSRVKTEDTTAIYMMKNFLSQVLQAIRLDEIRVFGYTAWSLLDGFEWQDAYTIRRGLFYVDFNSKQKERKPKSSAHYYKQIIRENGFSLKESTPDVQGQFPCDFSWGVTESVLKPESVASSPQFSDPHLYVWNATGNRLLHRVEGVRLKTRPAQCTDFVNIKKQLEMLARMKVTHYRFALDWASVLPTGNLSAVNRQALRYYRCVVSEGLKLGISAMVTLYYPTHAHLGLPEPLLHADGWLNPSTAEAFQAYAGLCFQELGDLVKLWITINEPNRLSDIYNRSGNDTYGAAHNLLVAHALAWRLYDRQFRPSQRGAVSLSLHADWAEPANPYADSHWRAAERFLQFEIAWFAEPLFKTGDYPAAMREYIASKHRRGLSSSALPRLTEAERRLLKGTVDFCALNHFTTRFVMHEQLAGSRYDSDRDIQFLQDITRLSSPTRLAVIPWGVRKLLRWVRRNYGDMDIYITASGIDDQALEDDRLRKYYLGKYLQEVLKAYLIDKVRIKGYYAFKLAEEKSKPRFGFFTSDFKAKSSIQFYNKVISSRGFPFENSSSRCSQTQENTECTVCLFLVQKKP

- EC50 (read off the curve) [1]: ~0.2 µg/mL
B1: fusion protein S5 (human IgG4 Fc - linker - FGF21 variant 98R, 167H, 171A, 175H) (Fc fusion)
chain: ESKYGPPCPPCPAPEAAGGPSVFLFPPKPKDTLMISRTPEVTCVVVDVSQEDPEVQFNWYVDGVEVHNAKTKPREEQFNSTYRVVSVLTVLHQDWLNGKEYKCKVSNKGLPSSIEKTISKAKGQPREPQVYTLPPSQEEMTKNQVSLTCLVKGFYPSDIAVEWESNGQPENNYKTTPPVLDSDGSFFLYSKLTVDKSRWQEGNVFSCSVMHEALHNHYTQKSLSLSLGGGGGSGGGGSGGGGSHPIPDSSPLLQFGGQVRQRYLYTDDAQQTEAHLEIREDGTVGGAADQSPESLLQLKALKPGVIQILGVKTSRFLCQRPDGALYGSLHFDPEACSFRERLLEDGYNVYQSEAHGLPLHLPGNKSPHRDPAPRGPARFLPLPGLPPALPEPPGILAPQPPDVGSSDPLHMVGASQGHSPSYAS

- binding ability relative to S7 [2]: 2 fold
- EC50 (read off the curve) [1]: ~0.02 µg/mL
- Kd [3]: 0.429 nM
- Response values [3]: 0.19
B2: fusion protein S2 (human IgG4 Fc - linker - FGF21 variant 98R, 167H, 171A, 175L) (Fc fusion)
chain: B1 chain with H418L

- Kd [3]: 0.873 nM
- Response values [3]: 0.143
B3: fusion protein S7 (human IgG4 Fc - linker - FGF21 variant 98R, 171A) (Fc fusion)
chain: B1 chain with H410S, H418R

- EC50 (read off the curve) [1]: ~0.02 µg/mL
- Kd [3]: 0.63 nM
- Response values [3]: 0.17
B4: fusion protein S1 (human IgG4 Fc - linker - FGF21 variant 98R, 167H, 171A) (Fc fusion)
chain: B1 chain with H418R
notes: Purified from HEK293F cells by Protein A

- EC50 (read off the curve) [1]: ~0.08 µg/mL
B5: fusion protein S4 (human IgG4 Fc - linker - FGF21 variant 98R, 167H, 171A, 175P) (Fc fusion)
chain: B1 chain with H418P
